Experimental data: US6680424 (UNIVERSITY OF LEEDS, dated 2004)
Where two headings read alike, the source gives them in different places.

T1: papain (UniProt P00784 134-345)
T1 sequence (looked up): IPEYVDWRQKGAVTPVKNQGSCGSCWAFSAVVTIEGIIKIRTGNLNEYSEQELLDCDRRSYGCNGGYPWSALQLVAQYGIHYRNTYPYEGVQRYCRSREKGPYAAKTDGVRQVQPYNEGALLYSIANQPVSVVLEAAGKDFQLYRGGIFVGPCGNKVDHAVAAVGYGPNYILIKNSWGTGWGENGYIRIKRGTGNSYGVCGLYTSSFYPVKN

T2: C. elegans cysteine proteinase gcp-1, expressed and purified from E. coli (Caenorhabditis elegans, UniProt P25807 85-329, limits assumed)
T2 construct: also called gcp-I; glp-1
T2 sequence (looked up): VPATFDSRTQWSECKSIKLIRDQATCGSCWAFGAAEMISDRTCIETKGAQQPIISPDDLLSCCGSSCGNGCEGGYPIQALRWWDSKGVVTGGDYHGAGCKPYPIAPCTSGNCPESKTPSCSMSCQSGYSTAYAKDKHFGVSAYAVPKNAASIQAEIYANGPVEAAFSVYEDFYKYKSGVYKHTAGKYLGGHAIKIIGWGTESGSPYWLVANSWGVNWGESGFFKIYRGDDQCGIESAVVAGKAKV


Experiments:
[1] = molecular target: corresponding proteinases (proteinase of the comparative inhibition assay, not named); assay: cell-based or functional assay
[2] = molecular target: corresponding proteinases (proteinase of the comparative inhibition assay, not named); assay: cell-based or functional assay; remark: listed apart in the source
papain [3] = molecular target: T1, papain; assay: proteinase inhibition assay (Barrett), Ki calculated as by Abe et al.
Experimental: (§1) To determine the Ki of cystatins biochemical assays were performed according to the procedure of Barrett (7) and Ki values were calculated as described by Abe et al. (3)

[4] = molecular target: T2, C. elegans cysteine proteinase gcp-1, …; assay: as above
Experimental: as §1

papain [5] = molecular target: T1, papain; assay: proteinase inhibition assay, Ki
[6] = molecular target: T2, C. elegans cysteine proteinase gcp-1, …; assay: proteinase inhibition assay, Ki

relative percentage inhibition [1]	relative percentage inhibition [2]	Ki (papain [3])	Ki [4]	fold lowering of Ki against wild type Oc-I (papain [5])	fold lowering of Ki against wild type Oc-I [6]	Molecule
–	60%	7 nM	8 nM	–	–	Oryzacystatin I (Oc-I), wild type, expressed from pQE30 in E. coli (other, Oryza sativa L. japonica, the present UniProt entry may carry a longer N-terminus, so the numbering must be checked; also called Oryzacystatin Oc-I; native Oc-I) HHHHHHMSSDGGPVLGGVEPVGNENDLHLVDLARFAVTEHNKKANSLLEFEKLVSVKQQVVAGTLYYFTIEVKEGDAKKLYEAKVWEKPWMDFKELQEFKPVDASANA
88%	–	0.5 nM	0.6 nM	~13 fold	~13 fold	Oc-IdeltaD86 (Oryzacystatin I with aspartic acid 86 deleted) (other) HHHHHHMSSDGGPVLGGVEPVGNENDLHLVDLARFAVTEHNKKANSLLEFEKLVSVKQQVVAGTLYYFTIEVKEGDAKKLYEAKVWEKPWMFKELQEFKPVDASANA
–	–	–	7.1 nM	–	–	Oc-I with deletion of residue M85 (other) HHHHHHMSSDGGPVLGGVEPVGNENDLHLVDLARFAVTEHNKKANSLLEFEKLVSVKQQVVAGTLYYFTIEVKEGDAKKLYEAKVWEKPWDFKELQEFKPVDASANA

The remaining lines, values behind:

Molecule	relative percentage inhibition [1]	relative percentage inhibition [2]	Ki (papain [3])	Ki [4]	fold lowering of Ki against wild type Oc-I (papain [5])	fold lowering of Ki against wild type Oc-I [6]
Chicken egg white cystatin (CEWC) (from UniProt P01038 24-139)	100%	–	–	–	–	–
OC-NTERM1-15QVLSG40-63CTERM97-116 (hybrid of Oc-I with three CEWC regions) (from UniProt P09229 56-77; P09229 102-123)	90%	–	–	–	–	–
